Test: Serum stability of 64Cu-labelled Sar-peptides by radio-HPLC
Type: in vitro ADME
Conditions: human male AB serum, 37° C.
Procedure: Human male AB serum (200 μL) was added to a solution of [^64CuL^1-Tyr^3-octreotate]^2+ (200 μL). This solution was incubated in a water bath at 37° C. At time points of 1 hr, 4 hr and 20 hr an aliquot of this serum solution (100 μL) was removed for radio-HPLC analysis: acetonitrile (200 μL) was added to the serum aliquot to precipitate serum proteins. This mixture was filtered and the acetonitrile evaporated under a stream of argon gas. The final volume was <100 μL. The solution was frozen at −70° C. until injection onto the HPLC column. 1 hr: Retention time 12.716 min, >95% radiochemical yield; 4 hr: Retention time 12.725 min, >95% radiochemical yield; 20 hr: Retention time 12.800 min, >95% radiochemical yield.
A single time point serum stability study for [^64CuL^1-Lys3-bombesin]^2+ was conducted in the same way as studies for [^64CuL^1-Tyr^3-octreotate]^2+. An aliquot of [^64CuL^1-Lys3-bombesin]^2+ (200 μL) was added to human male AB serum and incubated at 37° C. After 2 hr, the sample was subjected to the same treatment as described above and injected onto the HPLC column. 2 hr: Retention time 12.828 min, >95% radiochemical yield.

Row | SMILES | radiochemical yield (intact complex by radio-HPLC) after incubation in serum (2 hr) [%] | radiochemical yield (intact complex by radio-HPLC) after incubation in serum (1 hr) [%] | radiochemical yield (intact complex by radio-HPLC) after incubation in serum (4 hr) [%] | radiochemical yield (intact complex by radio-HPLC) after incubation in serum (20 hr) [%]
1 | CSCC[C@H](NC(=O)[C@H](CC(C)C)NC(=O)[C@H](Cc1c[nH]cn1)NC(=O)CNC(=O)[C@@H](NC(=O)[C@H](C)NC(=O)[C@H](Cc1c[nH]c2ccccc12)NC(=O)[C@H](CCC(N)=O)NC(=O)[C@H](CC(N)=O)NC(=O)CNC(=O)[C@H](CC(C)C)NC(=O)[C@H](CCCCNC(=O)CCCC(=O)NC12CNCCNCC(N)(CNCCNC1)CNCCNC2)NC(=O)[C@H](CCC(N)=O)NC(=O)[C@@H]1CCC(=O)N1)C(C)C)C(N)=O (64Cu complex, metal not drawn) [[^64CuL^1-Lys3-bombesin]^2+] | > 95 |  |  | 
2 | CC(O)[C@H](NC(=O)C1CSSC[C@H](NC(=O)[C@@H](Cc2ccccc2)NC(=O)CCCC(=O)N[C@]23CNCCNC[C@]4(N)C[N]5CC[N](C2)[Cu]52([CH3])([CH3])[N](CC[N]2C3)C4)C(=O)N[C@@H](Cc2ccc(O)cc2)C(=O)N[C@H](Cc2c[nH]c3ccccc23)C(=O)N[C@@H](CCCCN)C(=O)N[C@@H](C(C)O)C(=O)N1)C(=O)O (stereo partly shown) [[^64CuL^1-Tyr^3-octreotate]^2+] |  | > 95 | > 95 | > 95

Reference: patent US12565506B2, “Nitrogen-containing macrocyclic conjugates as radiopharmaceuticals” (Clarity Pharmaceuticals Ltd., priority 2008, dated 2026)
